This data set deals with the molecule itself. In words: crystal structure; non-tagged PAC3 homodimer, 8.0 mg/mL in 20 mM Tris-HCl pH 7.5, 150 mM NaCl; crystals from 30% PEG2000 monomethyl ether, 0.1 M potassium thiocyanate, 20 °C; space group P3(1)21, 0.96 Å.

B1: human PAC3 homodimer, non-tagged (natural protein)
chain: MEDTPLVISKQKTEVVCGVPTQVVCTAFSSHILVVVTQFGKMGTLVSLEPSSVASDVSKPVLTTKVLLGQDEPLIHVFAKNLVAFVSQEAGNRAVLLAVAVKDKSMEGLKALREVIRVCQVW
notes: human proteasome-assembling chaperone PAC3; source: E. coli BL21-CodonPlus (DE3)-RIL, purified
As to B1, the binding result is on record as “binds”.
